Laboratory results reported in article doi:10.1101/2020.10.18.344481.

Assays:
[1] = biological target: Thiomicrospira Cas2 (Thiomicrospira); test: cryo-EM structure
[2] = biological target: Thiomicrospira Cas6-RT-Cas1 fusion protein (Thiomicrospira); test: cryo-EM structure

Substance | stoichiometry N [1] | stoichiometry N [2]
Thiomicrospira Cas2 (natural protein) | 2 | 
Thiomicrospira Cas6-RT-Cas1 fusion protein (enzyme) |  | 2
